Assays:
MBP-Tin HD (WT) = biological target: T1, MBP-Tin HD (WT) (Drosophila melanogaster, UniProt P22711 301-360); experiment: EMSA; 1.5 ug protein; competed by 300-fold excess unlabelled WT; EMSA: 40 mM KCl, 15 mM HEPES pH 7.9, 1 mM EDTA, 0.5 mM DTT, 5% glycerol, 4 ug poly-dIdC; temperature not stated; details: protein: recombinant; tags: N-terminal MBP; label: radioactive (probe); only one strand given
T1 sequence: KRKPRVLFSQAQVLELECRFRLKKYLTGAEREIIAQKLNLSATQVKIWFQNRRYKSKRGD

MBP-Tin R321N HD = biological target: T2, MBP-Tin R321N HD (Drosophila melanogaster, UniProt P22711 301-360, R321N); experiment: EMSA; 1.5 ug protein, equal to WT; EMSA: 40 mM KCl, 15 mM HEPES pH 7.9, 1 mM EDTA, 0.5 mM DTT, 5% glycerol, 4 ug poly-dIdC; temperature not stated; details: protein: recombinant; tags: N-terminal MBP; label: radioactive (probe); only one strand given
T2 sequence: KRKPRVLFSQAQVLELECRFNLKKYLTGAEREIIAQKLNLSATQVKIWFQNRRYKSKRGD

B1: Mp Tin1 site (dsDNA)
DNA 1: GGACTCTTTGGCTGAAGTGTCCGGTGAAA
DNA 2: TTTCACCGGACACTTCAGCCAAAGAGTCC
- binding result (MBP-Tin HD (WT)): binds
- binding signal (MBP-Tin R321N HD): 7 % of WT band intensity

Source: PMC10548113, “Modeling a variant of unknown significance in the Drosophila ortholog of the human cardiogenic gene NKX2.5”
